Laboratory results: the nanobody polyreactivity screen of Harvey et al. (2022)

Assay: yeast display, Sf9 membrane polyspecificity reagent, FACS + sequencing; frameworks hold sequencing errors
Procedure, shortened: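 Polyreactivity labels are assigned by the sorting gate from which each nanobody was recovered. The gates were low and high (top ~1%), set on anti-HA fluorescence for expression and streptavidin fluorescence for reagent binding. Before sorting, galactose-induced (36–48 hours) yeast display cells were stained for 1 hour at 4 °C with 10% biotinylated, detergent-solubilized Sf9 membrane reagent.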

Sequence	polyreactivity (PSR sort gate)
QVQLVESGGGLVQAGGSLRLSCAASGSTFDGNAMGWYRQAPGKERELVATINSDDSKNYADSVKGRFTISRDNAKNTVYLQMNSLKPEDTAVYYCAARLYVTPILSYVERYTNDYWGQGTQVTVSS	low polyreactivity
QVQLVESGGGLVQAGGSLRLSCAASGSISYVNAMGWYRQAPGKERELVAAITGGGSTNYADSVKGRFTISRDNAKNTVYLQMNSLKPEDTAVYYCAADADTDVVYILQEYDYWGQGTQVTVSS	low polyreactivity
QVQLVESGGGLVQAGGSLRLSCAASGFIFRYNAMGWYRQAPGKEREFVAAISQGGASTYYADSVKGRFTISRVNAKNTVYLQINSLKPEDTAVYYCAREPSIFTPSYDYWGQGTQVTVSS	low polyreactivity
QVQLVESGGGLVQAGGSLRLSCAASGRTFARYAMGWYRQAPGKERELVARISSGGSTYYADSVKGRFTISRDNAKNTVYLQMNSLKPEDTAVYYCAASGWRYRYDYWGQGTQVTVSS	high polyreactivity
QVQLVESGGGLVQAGGSLRLSCAPSGSIFKYNTMGWYRQEPGKERELVATISGGGRTYYADSVKGRFTISRDNAKNTDYLQMNSLKPVDTAVYYCAARKRGNFTYDYWGQGTQVTVSS	high polyreactivity
QVQLVESGGGLVQAGGSLRLSCAASGRTFVFNAMGWYRQAPGKERELVAGISGSGGSTYYADSVKGRFTISRDNAKNTVYLQMNSLKPEDTAVYYCATKFPRKELDQDSVSGLGYWGQGTQVTVSS	low polyreactivity
QVQLVESGGGLVQAGGSLRLSCAASGGTFGTNTMGWYRQAPGKERELVAAISKRGGRTYYADSVKGRFTISRDNAKNTVYLQMNSLKPEDTAVYYCAADTGGNPKYDYWGQGTQVTVSS	high polyreactivity
QVQLVESGRGLVQAGGSLRLSCAASGRIFHYNAMVWYRQAPRKERELVAAISGSGGSTYYADTVKGRFTISRDIAKNTVYLQMNSLKPEDTADYYCGDKRRTLGGYWGQGTQVTVSS	high polyreactivity
QVQLVESGGGLVQAGGSLRLSCAASGLTIWRHAMGWYRQAPGKEREFVATISQNGGRTYYADSVKGRFTISRDNAKNTVYLQMNSLKPEDTAVYYCAADDWRWRYDYWGQGTQVTVSS	high polyreactivity
QVQLVESGGGLVQAGGSLRLSSAASARIFFKNTKGWYRPAPGKERELVAAITSSGSSTYYADSVKGRFTISRDNAKKTVYLQMNSLKPEDTAVYYCNALTWDHSRTGVDYWGQGTQVTVSS	low polyreactivity
QVQLVESGGGLVQAGGSLRLSCAASGFPFPDYAMGWYRQAPGKERELVAGISSTGDSTYYADSVKGRFTISRDNAKNTVYLQMNSLKPEDTAVYYCNAAQERPIIILFSKYDYWGQGTQVTVSS	low polyreactivity
QVQLVESGGGLVQAGGSLRLSCAASGRTSVYNAMGWYRQAPGKERELVAAITYGGRTYYADSVKGRFTISRDNAKNTVYLQMNSLKPEDTAVYYCAAPFHPAYVGYDYWGQGTQVTVSS	low polyreactivity
QVQLGESGGGLVQAGGSLRLSCAASGSTLRNNAMGWYRQAPGKERELVASIRTRGGSTRYADSVKGRFTISRDNAKNTVYLQMNSLKPEDTAVYYCAAQYYGKGWQLDYWGQGSQVTVSS	high polyreactivity
QDQLVESGGGLVQAGGSLRLSCAASGSIFYQNAMGWYRQAPGKERELVAAISIGGGSTYYADSVKGRFTISRDNAKNTVYLQMNSLKPEDTAVYYCATRRSVIYSYVPFDYWGQGTQVTVSS	low polyreactivity
QVQLVESGGGLVQAGGSLRLSCAASGNIFADYVMGWYRQAPGKERELVAAIDKSGGRTYYADSVKGRFTISRDNAKNTVYLQMNSLKPEDTAVYYCSAYDRYRRMDYWGQGTQVTVSS	high polyreactivity
QVQLVESGGGLFQAGGSLSLRCAASGSIFEVNALGWDRQGPGKERELVAAISQRGTRTYYADSVKGRFTMSRDYAKNTVYLQMNILKPEDTAVYYCNRGGWRQYDSWGQGTQVTVST	high polyreactivity
QVQLVESGGGLVQAGGSLRLSCAASGSTFYYYGMGWYRQAPGKESALVAAISSSGGNTYYADSVKGRFTISRDNAKNTVYLQMNSLKPEDTAVYYCARGGHRGYWGQGTQVTVSS	low polyreactivity
QVQLVESGGGLVQAGGSLRLICAASGSTQVYYAMGWYRQAPGKETELVASINHSGARTRYADSVKGRFTISRDNAKNTVYLQMNSLKPEVTAVYYCAAVARSTTYRYNYWGQGTQVTVSS	high polyreactivity
QVQLVESGGGLVQAGGSLRLSCAASGITFFRYAMGWYRQAPGKERELVAAITTSGSSTFYADSVKGRFTISRDNAKNTVYLQMNSLTPEDTAVYYCATDYERYTWVGYLVTYYYWGQGTQVTVSS	high polyreactivity
QVQLVESGGGLVQEGGSLRLSCAASGFTYYHYAMGWYRHAPGKERELVAAITWSGGDTYYADSVKGRFTISRDNAKNTVYLQMNSLKPDDTAVYYCNADDPPGARYFDSFDYRGDYWGQGTQVTVSS	low polyreactivity
QVQLVESGGGLVQAGGSLRLSCAASGRTFTPNVMGWYRQAPGKERELVAAITQSGGRTYYADSVKGRFTISRDNAKNTVYLQMNSLKPEDTAVYYCNAERAGTYRYDYWGQGTQVTVSS	high polyreactivity
QVQLVESGGGLVQAGGSLRLSCPASGRIFYYNAIGWYRQAPGKERELVATITRAGGTYYADSVKGRFTISRDNAKNTVYLQMNSLKPEDTAVYYCAKRHPIVDDYKGDYWGQGTQVTVSS	low polyreactivity

Sequence	polyreactivity (PSR sort gate)
QVQLVDSGGGLVQAGGSLRLSCAASGFIFQANAMGWYRQAPGKERELVAAIDDGDSTYADSVKGRFTISRDNAKNTVYLQMNSLKPEDTAVYYCATRRNRSYDYWGQGTLVTVSS	low polyreactivity
QVQLVESVGGLVQAGGSLRLSCAASGRIFGPYVMGWYRQAPGKERELVAAISTSGTSTYYADSVKGRFTISRDNAKNTDYLPMNSLKPEDTAVYYCAIRSGARHRLMDYWGQGTQVTVSS	low polyreactivity
QVQLVESGGGLVQAGGSLRLSCAASGRIFRSNAMGWYRQAPRKERELVAVITTAGSTNYADSVKGRFTISRDNAKNTVYLQMNSLKQEDTAVYYCATENGTRKRRYDYWGQGTQVTVSS	low polyreactivity
QVQLVESGGCLVQAGGSLRLSCAASGSSFTSNSMGWSRHAPGKERELVAAISSCGGSTYYADSVKGRFTISRDNATQTVYIQMNSLKPEDTAVYYCAADVHWPYRYDYWGQGTQVTVSS	low polyreactivity
QVQLQESGGGLVQAGGSLRLSCAASGSIFDGFNMGWYRQAPGKEREFVAAISYGASTYYADSVKGRFTVSRDNAKNSVYLQMNILKPEDTAVYYCAVVPSDGNLFSYWGQGTQVTVSS	low polyreactivity
QVQLVETCGGIVQAGGSLRLSCAASGITFALYAMGWYRESPGKERELVAAISYSGGRSYYADSVKGRFTISRDHAQNTVNLQMNSLKPEDTAVYYCAAGGSGSGPYGYGYWGQGTKVTVSS	high polyreactivity
QVQLVESGGGLVQAGGSLRLSCAASGSIFKYYAMGWYRQAPGKERELVAAISRSGTSTYYADSVKGRFTISRDNAKNTVYLQMNSLKPEDTAVYYCAARLSYYSRMNYWGQGTQVTVSS	high polyreactivity
QVQLVYSGGGLVQSGGSLRLSCAASGYIVQPYAMGWYRQAQGKERELVAPISWRGGSTYSADSVKGRFTISRDNAKNTVYLQMYSLKPEDTAVYYFAKDYYYGLEHYGYWGQGTQVTVSS	low polyreactivity
QVQLVESGGGLVQAGGSLRLSCAASGITFVSNVMGWYRQAPGKEREFVAAINVSGDSTTYADSVKGRFTISRDNAKNTVYLQRNSLKPEDTAVYYCAAEYNFPEFPWGGEYDYWGQGTQVTVSS	low polyreactivity
QVQLVESGGGLVPARGSLRLSCAASGFTFYRYAMGCYRQAPGKERELVAAITSRSGITYYADSVKGRFTISRDNAKNTVYLQMNSLKPEDTAVYYCAAYVYRSTEFDYGYWGQGTQVTVSS	high polyreactivity
QVQLVESGGGLVQAGGSLRLSCAASGITFGQYAMGWYRQAPGKERELVAVITSGGDTYYADSVKGRFTISRDNAKNTVYLQINSLKPEDTAVYYCNADDDLTSIYRYDYWGQGTQVTVSS	low polyreactivity
QVQLVESGGGLVQAGGSLRLSCAASGFIFYSNAMGWYRQAPGKERELVAAISWDAGSTYYADSVKGRFTISRDNPKNTVYLQMNSLKPEDTAVYYCATDRIVGRYIYNYWGQGTQVTVSS	high polyreactivity
QVQLVESGGGLVQAGGSLRLSCAASGFTFDSYAMGWYRQAPGKERELVAAMSYRGGTTYYADSVKGRFTISRDNAKNTGYLQMNSLKPEDTAVYYCNRLWKYGYNYWGQGTQVTVSS	high polyreactivity
QVQLVESGGGLVQAGGSLRLSCAASGSIFWYAMGWYRQAPGKERELVATITSGASTTYADSVKGRFTISRDNPKNTVYLQMNSLKPEDTAVYYCAKGFTYPQTRFGYWGQGTQVTVSS	low polyreactivity
QVQLVESGGGLVQAGGSLRLSCAASGSIFGFYDMGWYRQAPGKERELVAAITTGGSTYYADSVKGRFTISRDNAKNTVYLQMNSLKPEDTAVYYCAKERWFPYERNDYWGQGTQVTVSA	low polyreactivity
QVQLVESGGGLVQAGGSLRLSCAASGSIFDFYAMGWYRQAPGKERELVATITASGGSTYYADSVKGRFTISRDNAKNTVYLQMNSLKPEDTAVSYCNADSVYWGQGTQVTVSS	low polyreactivity
QVQLVESGGGLVQAGGSLRLSCAASGFIFGDYVMGRYRQAPGKEREVVAAITRRGGRTNYADSVKGRFTISRDNAKNTVFLQMNSLIPEDNAVFYCNAQSGVVADDYWGQGSQVTVSS	high polyreactivity
QVQLVESGGGLVQAGGSLRLSCAASGSTFTVYAMGWYRQAPGKERELVAAITVSTDSTYYADSVKGRFTISRDNAKNTVYLQMNSLKPEDTAVYYCAADSARSGYGRYDSWGQGTQVTVSS	low polyreactivity
QVQLVESGGGLVQAGGSLRLSCAASGFIFGWYAMGWYRQAPGKERELVAAISRSGGSTYYADSVKGRFTISRDNAMNTVYLQMNCLKPEDTAVYYCAAQRSYAYEYWGQGTQVTVSS	high polyreactivity
QVQLVESGGGLVQAGGSLRLICYASGSIFWVYAMGWYRQAPGKEWELVADIRYRDGSTHYADSVKGRFTISRDNAKNTVYLQMNSLKPEDTAVYYCAADDLPSTGYDYWGPGTQVTVSS	low polyreactivity
QVQLVESGGGLVQAGGSLRLSSADSGRIFRGYAMRLYRQAAGKVREFVAAISWGGGSKYYADSEKGRFTISRDNPKNTVYLQMNSLTPEDSAVYYCAAGSPYAYNYWGQGPQVTVSS	high polyreactivity
